The source of these data is patent publication US20100183625A1 (published 2010).

Assay [1] deals with T1, human plasma kallikrein (human, UniProt P03952 20-390; P03952 391-638).
T1 construct: also called pKal; human pKal
As to the kind of experiment: ELISA; signal on biotinylated plasma kallikrein divided by signal on streptavidin background. The text has this: Abbreviations used: “T/B” is the ELISA signal obtained using of the “target” (biotinylated plasma kallikrein) divided by the ELISA signal of the “background” (streptavidin); both of which were coated on microtiter plates. “nd” is not determined. The symbol “q” refers to the amber suppressible stop codon (TAG), which is translated as glutamine (Q) in strains of E. coli such as the TG1 cells that were used to express the Fab fragments.
T1 sequence (P03952 20-390, chain 1 of 2): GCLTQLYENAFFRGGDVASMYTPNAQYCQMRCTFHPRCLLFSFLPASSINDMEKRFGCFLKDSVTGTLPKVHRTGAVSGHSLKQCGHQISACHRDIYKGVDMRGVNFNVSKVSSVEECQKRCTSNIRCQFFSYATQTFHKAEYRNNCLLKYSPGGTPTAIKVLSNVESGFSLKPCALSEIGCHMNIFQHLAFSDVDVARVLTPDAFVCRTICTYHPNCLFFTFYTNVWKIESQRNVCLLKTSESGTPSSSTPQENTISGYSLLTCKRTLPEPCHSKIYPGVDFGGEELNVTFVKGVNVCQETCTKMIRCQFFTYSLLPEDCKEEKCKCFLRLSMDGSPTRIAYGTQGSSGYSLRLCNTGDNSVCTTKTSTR
T1 sequence (P03952 391-638, chain 2 of 2): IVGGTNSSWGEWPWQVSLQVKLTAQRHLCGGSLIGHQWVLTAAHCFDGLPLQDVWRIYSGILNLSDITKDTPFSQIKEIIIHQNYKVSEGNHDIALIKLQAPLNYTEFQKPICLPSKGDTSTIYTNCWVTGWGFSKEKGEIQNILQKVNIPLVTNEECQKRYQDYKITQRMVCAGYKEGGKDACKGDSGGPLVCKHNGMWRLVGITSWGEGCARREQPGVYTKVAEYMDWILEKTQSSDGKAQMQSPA

Assay [2] addresses T1, human plasma kallikrein. As to the kind of experiment: apparent Ki (Ki,app), inhibition of human pKal activity.
The target of assay [3] is human plasma kallikrein (human, UniProt P03952 20-390; P03952 391-638). As to the kind of experiment: cell-based or functional assay.
Target sequence in this assay (P03952 20-390, chain 1 of 2): as the sequence (P03952 20-390, chain 1 of 2) above
Target sequence in this assay (P03952 391-638, chain 2 of 2): as the sequence (P03952 391-638, chain 2 of 2) above

B1: M76-D01 (antibody, V domains shown)
VH: EVQLLESGGGLVQPGGSLRLSCAASGFTFSFYAMHWVRQAPGKGLEWVSGIVPSGGRTHYADSVKSRFTISRDNSKNTLYLQMNSLRAEDTAVYYCATDSSGSPNPLFDYWGQGTLVTVSS
VL: DIVMTQTPPSLPVNPGEPASISCRSSQSLSDDGNTYLDWYLQRPGQSPQLLIHTLSYRASGVPDRFSGSGSGTDFTLKISRVEAEDVGVYYCMQGTHWPPTFGQGTKVEIK
On to B1, for which, in assay [1], the “ELISA (T/B)” value amounted to 11.2 T/B ratio. The Ki in assay [2] is less than 100 nM.

B2: M207-A04 (Fab, V domains shown)
VH: EVQLLESGGGLVQPGGSLRLSCAASGFTFSHYLMTWVRQAPGKGLEWVSYISPSGGHTIYADSVKGRFTISRDNSKNTLYLQMNSLRAEDTAVYYCARVARGIAARSRTSYFDYWGQGTLVTVSS
VL: DIQMTQSPGTLSLSPGERATLSCRTSQFVNSNYLAWYQQTPGQAPRLLIYGASSRATGIPDRFSGTGYGTDFTLTISRLEPEDYGTYYCQQSSRTPWTFGQGTRVEIK
With B2, the “% inhibition at 10 nM” value in assay [3] was found to be 90.9%.

B3: M209-H03 (Fab, V domains shown)
VH: EVQLLESGGGLVQPGGSLRLSCAASGFTFSHYLMTWVRQAPSKGLEWVSYISPSGGHTIYADSVKGRFTISRDNSKNTLYLQMNSLRAEDTAVYYCARVAQGIAARSRTTQFDYWGQGTLVTVSS
VL: DIQMTQSPGTLSLSPGERATLSCRTSQFVNSNYLAWYQQTPGQAPRLLIYGASSRATGIPDRFSGTGYGTDFTLTISRLEPEDYGTYYCQQSSRTPWTFGQGTRVEIK
Consider B3, for which the “% inhibition at 10 nM” value in assay [3] was 82.6%.

B4: M209-B11 (Fab, V domains shown)
VH: EVQLLESGGGLVQPGGSLRLSCAASGFTFSHYLMTWVRQAPGKGLEWVSYISPSGGHTIYADSVKGRFTISRDNSKNTLYLQMNSLRAEDTAVYYCARVARGIAARSRTSYIDQWGQGTLVTVSS
VL: DIQMTQSPGTLSLSPGERATLSCRTSQFVNSNYLAWYQQTPGQAPRLLIYGASSRATGIPDRFSGTGYGTDFTLTISRLEPEDYGTYYCQQSSRTPWTFGQGTRVEIK
Take B4: the “% inhibition at 10 nM” value in assay [3] was 87.3%.

B5: M209-H07 (Fab, V domains shown)
VH: EVQLLESGGGLVQPGGSLRLSCAASGFTFSHYLMTWVRQAPGKGLEWVSYISPSGGHTIYADSVKGRFTISRDNSKNTLYLQMNSLRAEDTAVYYCARVARGIAARQRTSYYDYWGQGTLVTVSS
VL: DIQMTQSPGTLSLSPGERATLSCRTSQFVNSNYLAWYQQTPGQAPRLLIYGADDRATGIPDRFSGTGYGTDFTLTISRLEPEDYGTYYCQQSSRTPWTFGQGTRVEIK
B5: the “% inhibition at 10 nM” value in assay [3] came to 76.1%.

B6: M209-D12 (Fab, V domains shown)
VH: EVQLLESGGGLVQPGGSLRLSCAASGFTFSHYLMTWVRQAPSKGLEWVSYISPSGGHTIYADSVKGRFTISRDNSKNTLYLQMNSLRAEDTAVYYCATVARGIAARSRTSYFDQWGQGTLVTVSS
VL: DIQMTQSPGTLSLSPGERATLSCRTSQFVNSNYLAWYQQTPGQAPRLLIYGASSRATGIPDRFSGTGYGTDFTLTISRLEPEDYGTYYCQQSSRTPWTFGQGTRVEIK
As for B6, the “% inhibition at 10 nM” value in assay [3] amounted to 85.4%.

B7: M137-E12 (antibody, V domains shown)
VH: EVQLLESGGGLVQPGGSLRLSCAASGFTFSDYRMQWVRQAPGKGLEWVSVIVPSGGNTMYADSVKGRFTISRDNSKNTLYLQMNSLRAEDTAVYYCARGGPGSSIAARPAPTGYYGMDVWGQGTTVTVSS
VL: QSVLIQPPSVSGIPGQRVTISCSGNNSNFGSNTVTWYQQLPGTAPKLLIYSDSRRPSGVPDRFSGSRSDTSASLAISGLQSEDEAEYHCAAWDDSLNGVFGGGTKLTVL
Take B7: in assay [1], the “ELISA (T/B)” value was determined as 4.5 T/B ratio. Also, the Ki in assay [2] was found to be 79 nM.

B8: M29-E09 (antibody, V domains shown)
VH: EVQLLESGGGLVQPGGSLRLSCAASGFTFSWYEMGWVRQAPGKGLEWVSSIYSSGGGTMYADSVKGRFTISRDNSKNTLYLQMNSLRAEDTAVYYCARNPQYSGYDRSLSDGAFDIWGQGTMVTVSS
VL: QYELTQPPSVSVSPSQTATITCSGDNLGNKYNSWYQQKPGQSPLLVIYQDTKRPSAIPERFSGSNSGNTAILTISGTQAMDEADYYCQAWDGNVVFGGGTKLTVL
Regarding B8, in assay [1], the “ELISA (T/B)” value is 28.8 T/B ratio. In assay [2], the Ki amounted to 11 nM.
